According to patent publication US4010251A, “Scanning agent composition and use in imaging liver and for biliary function” (priority 1974, dated 1977):

Tests used:
liver = settings: human, in vivo; cited from earlier work
rat and rabbit liver = experiment: In vivo animal hepatic imaging after intravenous injection of labelled compounds
Protocol: Adult male Wistur rats weighing about 400g and male New Zealand rabbits weighing about 2.5kg. were used in the in vivo animal imaging studies. After intravenous injection of the labelled compounds (100-400uCi) as a bolus into experimental animals, hepatic imaging was performed on a PhoGamma III scintillation camera (Nuclear Chicago Corp., Des Plaines, Ill.) using a 140keV parallel collimator. Images were recorded on Polaroid type 55 film.

[1] = in vivo; cited from earlier work

O=C(O)c1c(Cl)c(Cl)c(Cl)c(Cl)c1-c1c2cc(I)c(=O)c(I)c-2oc2c(I)c(O)c(I)cc12 [^131 I-rose bengal]
20:5 minutes ratio of blood ^131 I-rose bengal concentrations (liver): 0.39-0.51 | time by which biliary excretion has begun (liver): ≤ 20 min | time for maximal concentration in the liver (liver): ~30 min

B1: Radiolabelled DTBG: Radiolabelled desialylated thyroxine-binding globulin; radiolabel not specified at that place (protein, UniProt P05543 21-415, looked up)
Thyroxine-binding globulin: ASPEGKVTACHSSQPNATLYKMSSINADFAFNLYRRFTVETPDKNIFFSPVSISAALVMLSFGACCSTQTEIVETLGFNLTDTPMVEIQHGFQHLICSLNFPKKELELQIGNALFIGKHLKPLAKFLNDVKTLYETEVFSTDFSNISAAKQEINSHVEMQTKGKVVGLIQDLKPNTIMVLVNYIHFKAQWANPFDPSKTEDSSSFLIDKTTTVQVPMMHQMEQYYHLVDMELNCTVLQMDYSKNALALFVLPKEGQMESVEAAMSSKTLKKWNRLLQKGWVDLFVPKFSISATYDLGATLLKMGIQHAYSENADFSGLTEDNGLKLSNAAHKAVLHIGEKGTEAAAVPEVELSDQPENTFLHPIIQIDRSFMLLILERSTRSILFLGKVVNPTEA
modifications: desialylated; radiolabelled
notes: radiolabel not specified at that place
liver imaging after intravenous injection (rat and rabbit liver; scintillation camera): effective as a liver imaging agent

B2: DTBG: desialylated thyroxine-binding globulin from pooled human serum (protein, UniProt P05543 21-415, looked up)
Thyroxine-binding globulin: ASPEGKVTACHSSQPNATLYKMSSINADFAFNLYRRFTVETPDKNIFFSPVSISAALVMLSFGACCSTQTEIVETLGFNLTDTPMVEIQHGFQHLICSLNFPKKELELQIGNALFIGKHLKPLAKFLNDVKTLYETEVFSTDFSNISAAKQEINSHVEMQTKGKVVGLIQDLKPNTIMVLVNYIHFKAQWANPFDPSKTEDSSSFLIDKTTTVQVPMMHQMEQYYHLVDMELNCTVLQMDYSKNALALFVLPKEGQMESVEAAMSSKTLKKWNRLLQKGWVDLFVPKFSISATYDLGATLLKMGIQHAYSENADFSGLTEDNGLKLSNAAHKAVLHIGEKGTEAAAVPEVELSDQPENTFLHPIIQIDRSFMLLILERSTRSILFLGKVVNPTEA
modifications: desialylated
half-life in the circulation [1]: 4 to 5 min

B3: ^131 I-DTBG: ^131 I labelled desialylated thyroxine-binding globulin (protein, UniProt P05543 21-415, looked up)
Thyroxine-binding globulin: ASPEGKVTACHSSQPNATLYKMSSINADFAFNLYRRFTVETPDKNIFFSPVSISAALVMLSFGACCSTQTEIVETLGFNLTDTPMVEIQHGFQHLICSLNFPKKELELQIGNALFIGKHLKPLAKFLNDVKTLYETEVFSTDFSNISAAKQEINSHVEMQTKGKVVGLIQDLKPNTIMVLVNYIHFKAQWANPFDPSKTEDSSSFLIDKTTTVQVPMMHQMEQYYHLVDMELNCTVLQMDYSKNALALFVLPKEGQMESVEAAMSSKTLKKWNRLLQKGWVDLFVPKFSISATYDLGATLLKMGIQHAYSENADFSGLTEDNGLKLSNAAHKAVLHIGEKGTEAAAVPEVELSDQPENTFLHPIIQIDRSFMLLILERSTRSILFLGKVVNPTEA
modifications: 131I label; desialylated
clearance of the iodine label by the kidneys noted, time post-injection (rat and rabbit liver; in vivo): 20 or 30 minutes | uptake and concentration in the liver (rat and rabbit liver; in vivo): rapidly taken up by the hepatocytes
